Consider six molecules from publication doi:10.1101/2022.10.05.511023 (bioRxiv, 2022).

The data set “dynamic light scattering” concerns the molecule itself. Kind of data set: dynamic light scattering.
Data set [1] deals with T1, farnesylated GBP1 (guanylate binding protein 1) (human, UniProt P32455 1-592, farnesylated in vitro (C-terminal farnesyl moiety)).
T1 sequence: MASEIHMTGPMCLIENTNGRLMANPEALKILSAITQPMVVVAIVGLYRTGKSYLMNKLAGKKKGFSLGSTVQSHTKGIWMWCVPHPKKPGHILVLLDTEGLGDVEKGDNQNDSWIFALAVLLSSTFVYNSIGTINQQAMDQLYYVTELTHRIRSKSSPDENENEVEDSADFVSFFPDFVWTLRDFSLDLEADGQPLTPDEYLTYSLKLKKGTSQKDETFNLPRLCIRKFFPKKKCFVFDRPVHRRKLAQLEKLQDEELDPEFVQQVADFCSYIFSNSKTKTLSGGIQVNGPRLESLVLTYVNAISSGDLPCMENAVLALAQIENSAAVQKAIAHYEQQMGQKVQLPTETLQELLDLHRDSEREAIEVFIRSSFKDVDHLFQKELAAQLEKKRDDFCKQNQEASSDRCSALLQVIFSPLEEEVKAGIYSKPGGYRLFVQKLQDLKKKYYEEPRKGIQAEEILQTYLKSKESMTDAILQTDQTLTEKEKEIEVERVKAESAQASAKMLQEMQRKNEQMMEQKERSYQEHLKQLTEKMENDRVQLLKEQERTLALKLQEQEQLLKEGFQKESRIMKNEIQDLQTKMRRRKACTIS
Kind of data set: absorbance-based light scattering.

The target of data set [2] is T2, non-farnesylated GBP1 (guanylate binding protein 1) (human), P32455.
T2 chain: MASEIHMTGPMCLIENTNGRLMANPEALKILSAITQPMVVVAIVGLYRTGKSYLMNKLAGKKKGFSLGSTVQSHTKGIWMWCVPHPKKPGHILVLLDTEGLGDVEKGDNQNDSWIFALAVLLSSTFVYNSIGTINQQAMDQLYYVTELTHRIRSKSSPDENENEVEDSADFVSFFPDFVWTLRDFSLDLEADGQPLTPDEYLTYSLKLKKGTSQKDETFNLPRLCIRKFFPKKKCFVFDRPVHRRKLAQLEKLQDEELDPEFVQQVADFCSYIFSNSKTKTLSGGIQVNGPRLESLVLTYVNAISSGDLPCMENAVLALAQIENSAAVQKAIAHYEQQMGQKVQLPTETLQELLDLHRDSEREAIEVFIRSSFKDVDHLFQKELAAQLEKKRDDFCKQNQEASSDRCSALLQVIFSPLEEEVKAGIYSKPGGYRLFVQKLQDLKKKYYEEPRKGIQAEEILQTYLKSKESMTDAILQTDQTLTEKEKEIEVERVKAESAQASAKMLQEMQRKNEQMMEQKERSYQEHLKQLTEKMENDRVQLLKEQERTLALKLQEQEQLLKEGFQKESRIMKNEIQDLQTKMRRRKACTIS
Briefly: dynamic light scattering. Conditions: remark: other sources report otherwise.

For data set [3], the target named is T3, non-geranylgeranylated GBP5 (guanylate binding protein 5) (human), Q96PP8.
T3 chain: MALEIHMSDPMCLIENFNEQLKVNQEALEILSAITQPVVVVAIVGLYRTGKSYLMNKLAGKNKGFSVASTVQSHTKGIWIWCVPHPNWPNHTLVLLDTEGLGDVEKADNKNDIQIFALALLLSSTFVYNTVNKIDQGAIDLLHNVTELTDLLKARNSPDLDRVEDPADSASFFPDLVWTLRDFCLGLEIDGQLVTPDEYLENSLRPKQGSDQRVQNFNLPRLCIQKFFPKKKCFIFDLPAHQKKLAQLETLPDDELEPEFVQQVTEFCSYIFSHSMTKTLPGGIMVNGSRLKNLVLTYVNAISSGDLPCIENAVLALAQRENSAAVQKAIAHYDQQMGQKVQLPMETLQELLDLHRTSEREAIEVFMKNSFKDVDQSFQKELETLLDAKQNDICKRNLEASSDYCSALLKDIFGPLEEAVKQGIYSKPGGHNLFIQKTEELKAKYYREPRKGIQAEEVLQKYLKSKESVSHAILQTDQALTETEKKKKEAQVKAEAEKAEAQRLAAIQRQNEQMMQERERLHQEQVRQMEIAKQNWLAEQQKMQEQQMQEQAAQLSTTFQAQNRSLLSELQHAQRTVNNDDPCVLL
Briefly: dynamic light scattering. Conditions: remark: other sources report otherwise.

Data set [4] deals with T4, geranylgeranylated GBP5 (guanylate binding protein 5) (human), Q96PP8.
T4 chain: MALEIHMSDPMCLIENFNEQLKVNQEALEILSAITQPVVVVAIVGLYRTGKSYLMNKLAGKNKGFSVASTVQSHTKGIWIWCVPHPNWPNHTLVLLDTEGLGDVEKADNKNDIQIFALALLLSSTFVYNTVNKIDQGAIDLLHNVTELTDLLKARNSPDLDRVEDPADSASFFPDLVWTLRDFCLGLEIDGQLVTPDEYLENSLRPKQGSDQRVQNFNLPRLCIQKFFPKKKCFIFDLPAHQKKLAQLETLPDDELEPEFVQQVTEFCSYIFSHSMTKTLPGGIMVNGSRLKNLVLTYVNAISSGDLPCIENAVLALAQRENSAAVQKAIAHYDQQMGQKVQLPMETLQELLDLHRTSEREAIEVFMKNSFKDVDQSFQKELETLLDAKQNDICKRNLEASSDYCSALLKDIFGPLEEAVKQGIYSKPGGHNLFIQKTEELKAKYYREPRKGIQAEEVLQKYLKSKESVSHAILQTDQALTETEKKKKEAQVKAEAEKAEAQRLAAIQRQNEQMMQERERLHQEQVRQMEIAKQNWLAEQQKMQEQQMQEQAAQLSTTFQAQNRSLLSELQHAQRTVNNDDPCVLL
Kind of data set: dynamic light scattering. Conditions: remark: other sources report otherwise.

B1: geranylgeranylated GBP2 (guanylate binding protein 2) (natural protein, human, UniProt P32456 1-591, looked up)
chain: MAPEINLPGPMSLIDNTKGQLVVNPEALKILSAITQPVVVVAIVGLYRTGKSYLMNKLAGKKNGFSLGSTVKSHTKGIWMWCVPHPKKPEHTLVLLDTEGLGDIEKGDNENDSWIFALAILLSSTFVYNSMGTINQQAMDQLHYVTELTDRIKANSSPGNNSVDDSADFVSFFPAFVWTLRDFTLELEVDGEPITADDYLELSLKLRKGTDKKSKSFNDPRLCIRKFFPKRKCFVFDWPAPKKYLAHLEQLKEEELNPDFIEQVAEFCSYILSHSNVKTLSGGIPVNGPRLESLVLTYVNAISSGDLPCMENAVLALAQIENSAAVEKAIAHYEQQMGQKVQLPTETLQELLDLHRDSEREAIEVFMKNSFKDVDQMFQRKLGAQLEARRDDFCKQNSKASSDCCMALLQDIFGPLEEDVKQGTFSKPGGYRLFTQKLQELKNKYYQVPRKGIQAKEVLKKYLESKEDVADALLQTDQSLSEKEKAIEVERIKAESAEAAKKMLEEIQKKNEEMMEQKEKSYQEHVKQLTEKMERDRAQLMAEQEKTLALKLQEQERLLKEGFENESKRLQKDIWDIQMRSKSLEPICNIL
modifications: geranylgeranylated in vitro (C-terminal geranylgeranyl moiety)
As to B1, the binding result (in the data set “dynamic light scattering”; in data set [1]) was “binds” each time.

B2: non-geranylgeranylated GBP2 (guanylate binding protein 2) (natural protein, human, UniProt P32456 1-591, looked up)
chain: MAPEINLPGPMSLIDNTKGQLVVNPEALKILSAITQPVVVVAIVGLYRTGKSYLMNKLAGKKNGFSLGSTVKSHTKGIWMWCVPHPKKPEHTLVLLDTEGLGDIEKGDNENDSWIFALAILLSSTFVYNSMGTINQQAMDQLHYVTELTDRIKANSSPGNNSVDDSADFVSFFPAFVWTLRDFTLELEVDGEPITADDYLELSLKLRKGTDKKSKSFNDPRLCIRKFFPKRKCFVFDWPAPKKYLAHLEQLKEEELNPDFIEQVAEFCSYILSHSNVKTLSGGIPVNGPRLESLVLTYVNAISSGDLPCMENAVLALAQIENSAAVEKAIAHYEQQMGQKVQLPTETLQELLDLHRDSEREAIEVFMKNSFKDVDQMFQRKLGAQLEARRDDFCKQNSKASSDCCMALLQDIFGPLEEDVKQGTFSKPGGYRLFTQKLQELKNKYYQVPRKGIQAKEVLKKYLESKEDVADALLQTDQSLSEKEKAIEVERIKAESAEAAKKMLEEIQKKNEEMMEQKEKSYQEHVKQLTEKMERDRAQLMAEQEKTLALKLQEQERLLKEGFENESKRLQKDIWDIQMRSKSLEPICNIL
Regarding B2, the stoichiometry N – broadly, a count of units in the complex or per binding partner – in the data set “dynamic light scattering” stood at 2.

B3: non-farnesylated GBP1 (guanylate binding protein 1), P32455 1-592 (natural protein)
chain: MASEIHMTGPMCLIENTNGRLMANPEALKILSAITQPMVVVAIVGLYRTGKSYLMNKLAGKKKGFSLGSTVQSHTKGIWMWCVPHPKKPGHILVLLDTEGLGDVEKGDNQNDSWIFALAVLLSSTFVYNSIGTINQQAMDQLYYVTELTHRIRSKSSPDENENEVEDSADFVSFFPDFVWTLRDFSLDLEADGQPLTPDEYLTYSLKLKKGTSQKDETFNLPRLCIRKFFPKKKCFVFDRPVHRRKLAQLEKLQDEELDPEFVQQVADFCSYIFSNSKTKTLSGGIQVNGPRLESLVLTYVNAISSGDLPCMENAVLALAQIENSAAVQKAIAHYEQQMGQKVQLPTETLQELLDLHRDSEREAIEVFIRSSFKDVDHLFQKELAAQLEKKRDDFCKQNQEASSDRCSALLQVIFSPLEEEVKAGIYSKPGGYRLFVQKLQDLKKKYYEEPRKGIQAEEILQTYLKSKESMTDAILQTDQTLTEKEKEIEVERVKAESAQASAKMLQEMQRKNEQMMEQKERSYQEHLKQLTEKMENDRVQLLKEQERTLALKLQEQEQLLKEGFQKESRIMKNEIQDLQTKMRRRKACTIS
In data set [2], B3 registered a stoichiometry N of 2.

B4: non-geranylgeranylated GBP5 (guanylate binding protein 5), Q96PP8 1-586 (natural protein)
chain: MALEIHMSDPMCLIENFNEQLKVNQEALEILSAITQPVVVVAIVGLYRTGKSYLMNKLAGKNKGFSVASTVQSHTKGIWIWCVPHPNWPNHTLVLLDTEGLGDVEKADNKNDIQIFALALLLSSTFVYNTVNKIDQGAIDLLHNVTELTDLLKARNSPDLDRVEDPADSASFFPDLVWTLRDFCLGLEIDGQLVTPDEYLENSLRPKQGSDQRVQNFNLPRLCIQKFFPKKKCFIFDLPAHQKKLAQLETLPDDELEPEFVQQVTEFCSYIFSHSMTKTLPGGIMVNGSRLKNLVLTYVNAISSGDLPCIENAVLALAQRENSAAVQKAIAHYDQQMGQKVQLPMETLQELLDLHRTSEREAIEVFMKNSFKDVDQSFQKELETLLDAKQNDICKRNLEASSDYCSALLKDIFGPLEEAVKQGIYSKPGGHNLFIQKTEELKAKYYREPRKGIQAEEVLQKYLKSKESVSHAILQTDQALTETEKKKKEAQVKAEAEKAEAQRLAAIQRQNEQMMQERERLHQEQVRQMEIAKQNWLAEQQKMQEQQMQEQAAQLSTTFQAQNRSLLSELQHAQRTVNNDDPCVLL
In data set [3], B4 registered a stoichiometry N of 2.

B5: geranylgeranylated GBP5 (guanylate binding protein 5) (natural protein, human, UniProt Q96PP8 1-586, looked up)
chain: MALEIHMSDPMCLIENFNEQLKVNQEALEILSAITQPVVVVAIVGLYRTGKSYLMNKLAGKNKGFSVASTVQSHTKGIWIWCVPHPNWPNHTLVLLDTEGLGDVEKADNKNDIQIFALALLLSSTFVYNTVNKIDQGAIDLLHNVTELTDLLKARNSPDLDRVEDPADSASFFPDLVWTLRDFCLGLEIDGQLVTPDEYLENSLRPKQGSDQRVQNFNLPRLCIQKFFPKKKCFIFDLPAHQKKLAQLETLPDDELEPEFVQQVTEFCSYIFSHSMTKTLPGGIMVNGSRLKNLVLTYVNAISSGDLPCIENAVLALAQRENSAAVQKAIAHYDQQMGQKVQLPMETLQELLDLHRTSEREAIEVFMKNSFKDVDQSFQKELETLLDAKQNDICKRNLEASSDYCSALLKDIFGPLEEAVKQGIYSKPGGHNLFIQKTEELKAKYYREPRKGIQAEEVLQKYLKSKESVSHAILQTDQALTETEKKKKEAQVKAEAEKAEAQRLAAIQRQNEQMMQERERLHQEQVRQMEIAKQNWLAEQQKMQEQQMQEQAAQLSTTFQAQNRSLLSELQHAQRTVNNDDPCVLL
modifications: geranylgeranylated in vitro (C-terminal geranylgeranyl moiety)
Regarding B5, the binding result in data set [1] was “binds”.

B6: geranylgeranylated GBP5 (guanylate binding protein 5), Q96PP8 1-586 (natural protein)
chain: MALEIHMSDPMCLIENFNEQLKVNQEALEILSAITQPVVVVAIVGLYRTGKSYLMNKLAGKNKGFSVASTVQSHTKGIWIWCVPHPNWPNHTLVLLDTEGLGDVEKADNKNDIQIFALALLLSSTFVYNTVNKIDQGAIDLLHNVTELTDLLKARNSPDLDRVEDPADSASFFPDLVWTLRDFCLGLEIDGQLVTPDEYLENSLRPKQGSDQRVQNFNLPRLCIQKFFPKKKCFIFDLPAHQKKLAQLETLPDDELEPEFVQQVTEFCSYIFSHSMTKTLPGGIMVNGSRLKNLVLTYVNAISSGDLPCIENAVLALAQRENSAAVQKAIAHYDQQMGQKVQLPMETLQELLDLHRTSEREAIEVFMKNSFKDVDQSFQKELETLLDAKQNDICKRNLEASSDYCSALLKDIFGPLEEAVKQGIYSKPGGHNLFIQKTEELKAKYYREPRKGIQAEEVLQKYLKSKESVSHAILQTDQALTETEKKKKEAQVKAEAEKAEAQRLAAIQRQNEQMMQERERLHQEQVRQMEIAKQNWLAEQQKMQEQQMQEQAAQLSTTFQAQNRSLLSELQHAQRTVNNDDPCVLL
modifications: here or on the partner: geranylgeranylated in vitro (C-terminal geranylgeranyl moiety); geranylgeranylated in vitro (C-terminal geranylgeranyl moiety)
Molecule B6 came in with a stoichiometry N in data set [4] of 2.
